Assay results: US12031137B2, “Compositions comprising SASP modulators and senescence attenuators and uses thereof for modulating cellular senescence” (RSEM, LIMITED PARTNERSHIP, priority 2016, dated 2024)
Changes are numbered by the printed parent chain. Names may count otherwise. Values belong to the molecule of their own block, whether it stands above or below them.

Experiments:
SEMA3A-FC = test: Sema 3A binding assay on plate-coated purified traps (saturation curves, KD); settings: for Binding to SEMA3A: Table 2, Yes/No; for Kd: read-out: SEMA 3A-FC binding (dissociation constant)
Method: (§1) Sema 3A and AP-VEGF165 binding assays. Saturation curves for the determinations of KD of binding to SEMA 3A or VEGF165 were obtained as follow. Wells of high protein binding 96 well plates (Maxisorp, Nunc) were coated with purified traps diluted in PBS and blocked afterward with binding buffer (PBS containing 2% casein and 0.05% Tween 20). The SEMA3A-FC (R&D systems) or AP-VEGF165 ligands were diluted in binding buffer over an extensive range of concentrations and added to wells. Following an overnight incubation, wells were washed with PBS containing 0.05% tween. Bound SEMA3a-FC was detected using an HRP-linked anti-Human IgG (Biorad) and ECL substrate (Pierce). Alternatively, bound AP-VEGF165 was detected using CPD star substrate (Roche). The Chemiluminescent signal was acquired on a TECAN reader. Dissociation constant (KD) were determined by non-linear curve fitting using the Graph Pad prism software.
(§2) The relative affinity of traps of the present invention to SEMA3A and VEGF has been assessed. Traps were prepared as described in Example 8.

human VEGF165 = target: T1, human VEGF165 (Homo sapiens, UniProt P15692); test: AP-VEGF165 binding assay on plate-coated purified traps (saturation curves, KD); settings: AP-VEGF165 ligand; for Kd: read-out: VEGF165 binding (dissociation constant)
T1 construct: made in house; host or cells: HEK293T
T1 sequence (P15692 27-191 isoform P15692-4): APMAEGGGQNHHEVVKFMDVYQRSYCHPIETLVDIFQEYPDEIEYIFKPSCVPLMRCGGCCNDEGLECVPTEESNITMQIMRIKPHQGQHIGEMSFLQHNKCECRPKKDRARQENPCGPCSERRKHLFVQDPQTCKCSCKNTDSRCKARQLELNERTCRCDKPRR
Method: Production of AP-VEGF165. the coding sequence of the human VEGF165 variant 1 (NM_001025366) was sub-cloned in the pAPtag5 vector (GenHunter), in-frame with an Alkaline Phosphatase domain (AP-VEGF165). HEK293T cells were transfected with the AP-VEGF165 construct using a polyethylenimine (PEI) transfection method. Following the overnight transfection step, cells were cultured for an additional 60 hr in serum free media (In vitrogen). The cell media were collected and concentrated on a PES device (Pierce). The concentrated AP-VEGF165 ligand was analysed on PAGE-SDS and quantified using SimplyBlue safe stain (Life technologies).
as §1, §2

[1] = traps coated on plate, overnight incubation

Binding to SEMA3A (SEMA3A-FC): Yes | Kd (human VEGF165): 24.6 nM
Molecule: Trap S: NRP1 trap a1a2-b1-c, aa about 22-430 and 584-856; SEQ ID NOs 93/94

Binding to SEMA3A (SEMA3A-FC): Yes | Kd (SEMA3A-FC; [1]): 1.14 nM | Kd (human VEGF165): 20.7 nM
Molecule: Trap W: NRP1 trap a1a2-b1-c (in part), aa about 22-430 and 584-795; SEQ ID NOs 87/88

Binding to SEMA3A (SEMA3A-FC): No | SEMA 3A-FC binding (dissociation constant) (SEMA3A-FC; [1]): No binding | VEGF165 binding (dissociation constant) (human VEGF165): No binding
B1: Trap AD: NRP1 trap a1a2b1, aa about 22-424 and 561-583, D320K; SEQ ID NOs 51/52 (protein)
chain: MERGLPLLCAVLALVLAPAGAFRNDKCGDTIKIESPGYLTSPGYPHSYHPSEKCEWLIQAPDPYQRIMINFNPHFDLEDRDCKYDYVEVFDGENENGHFRGKFCGKIAPPPVVSSGPFLFIKFVSDYETHGAGFSIRYELFKRGPECSQNYTTPSGVIKSPGFPEKYPNSLECTYIVFAPKMSEIILEFESFDLEPDSNPPGGMFCRYDRLEIWDGFPDVGPHIGRYCGQKTPGRIRSSSGILSMVFYTDSAIAKEGFSANYSVLQSSVSEDFKCMEALGMESGEIHSDQITASSQYSTNWSAERSRLNYPENGWTPGEKSYREWIQVDLGLLRFVTAVGTQGAISKETKKKYYVKTYKIDVSSNGEDWITIKEGNKPVLFQGNTNPTDVVVAVFPKPLITRFVRIKPATWETGISMRFEVYGCRSGSKENLYFQG

Binding to SEMA3A (SEMA3A-FC): Yes | Kd (human VEGF165): 67 nM
B2: Trap Z: NRP1 trap a1a2-b1b2-c, aa about 22-856, E319K, D320K; SEQ ID NOs 71/72 (protein)
chain: FRNDKCGDTIKIESPGYLTSPGYPHSYHPSEKCEWLIQAPDPYQRIMINFNPHFDLEDRDCKYDYVEVFDGENENGHFRGKFCGKIAPPPVVSSGPFLFIKFVSDYETHGAGFSIRYELFKRGPECSQNYTTPSGVIKSPGFPEKYPNSLECTYIVFAPKMSEIILEFESFDLEPDSNPPGGMFCRYDRLEIWDGFPDVGPHIGRYCGQKTPGRIRSSSGILSMVFYTDSAIAKEGFSANYSVLQSSVSEDFKCMEALGMESGEIHSDQITASSQYSTNWSAERSRLNYPENGWTPGKKSYREWIQVDLGLLRFVTAVGTQGAISKETKKKYYVKTYKIDVSSNGEDWITIKEGNKPVLFQGNTNPTDVVVAVFPKPLITRFVRIKPATWETGISMRFEVYGCKITDYPCSGMLGMVSGLISDSQITSSNQGDRNWMPENIRLVTSRSGWALPPAPHSYINEWLQIDLGEEKIVRGIIIQGGKHRENKVFMRKFKIGYSNNGSDWKMIMDDSKRKAKSFEGNNNYDTPELRTFPALSTRFIRIYPERATHGGLGLRMELLGCEVEAPTAGPTTPNGNLVDECDDDQANCHSGTGDDFQLTGGTTVLATEKPTVIDSTIQSEFPTYGFNCEFGWGSHKTFCHWEHDNHVQLKWSVLTSKTGPIQDHTGDGNFIYSQADENQKGKVARLVSPVVYSQNSAHCMTFWYHMSGSHVGTLRVKLRYQKPEEYDQLVWMAIGHQGDHWKEGRVLLHKSLKLYQVIFEGEIGKGNLGGIAVDDISINNHISQEDCAKPADLDKKNPEIKIDETGSTPGYEGEGEGDKNISRKPGNVLKTLDPRSGSKENLYFQG

Binding to SEMA3A (SEMA3A-FC): No | Kd (human VEGF165): 29.5 nM
B3: Trap AB: NRP1 trap a1a2-b1b2-c, aa about 22-856, E348K, S346A; SEQ ID NOs 73/74 (protein)
chain: B2 chain with K298E, K299D, S325A, E327K

Binding to SEMA3A (SEMA3A-FC): Yes | Kd (SEMA3A-FC; [1]): 4 nM | VEGF165 binding (dissociation constant) (human VEGF165): No binding
B4: Trap AC: NRP1 trap a1a2-b1b2-c, aa about 22-856, D320K; SEQ ID NOs 75/76 (protein)
chain: B2 chain with K298E

Binding to SEMA3A (SEMA3A-FC): Yes
B5: Trap AR: NRP1 trap a2b1, aa about 22-26 and 143-424; SEQ ID NOs 63/64 (protein)
chain: MERGLPLLCAVLALVLAPAGAFRNDKRGPECSQNYTTPSGVIKSPGFPEKYPNSLECTYIVFAPKMSEIILEFESFDLEPDSNPPGGMFCRYDRLEIWDGFPDVGPHIGRYCGQKTPGRIRSSSGILSMVFYTDSAIAKEGFSANYSVLQSSVSEDFKCMEALGMESGEIHSDQITASSQYSTNWSAERSRLNYPENGWTPGEDSYREWIQVDLGLLRFVTAVGTQGAISKETKKKYYVKTYKIDVSSNGEDWITIKEGNKPVLFQGNTNPTDVVVAVFPKPLITRFVRIKPATWETGISMRFEVYGCRSGSKENLYFQG

Binding to SEMA3A (SEMA3A-FC): Yes
B6: Trap AJ: NRP1 trap a2b1b2c, aa about 22-26, 143-630 and 701-856; SEQ ID NOs 59/60 (protein)
chain: MERGLPLLCAVLALVLAPAGAFRNDKRGPECSQNYTTPSGVIKSPGFPEKYPNSLECTYIVFAPKMSEIILEFESFDLEPDSNPPGGMFCRYDRLEIWDGFPDVGPHIGRYCGQKTPGRIRSSSGILSMVFYTDSAIAKEGFSANYSVLQSSVSEDFKCMEALGMESGEIHSDQITASSQYSTNWSAERSRLNYPENGWTPGEDSYREWIQVDLGLLRFVTAVGTQGAISKETKKKYYVKTYKIDVSSNGEDWITIKEGNKPVLFQGNTNPTDVVVAVFPKPLITRFVRIKPATWETGISMRFEVYGCKITDYPCSGMLGMVSGLISDSQITSSNQGDRNWMPENIRLVTSRSGWALPPAPHSYINEWLQIDLGEEKIVRGIIIQGGKHRENKVFMRKFKIGYSNNGSDWKMIMDDSKRKAKSFEGNNNYDTPELRTFPALSTRFIRIYPERATHGGLGLRMELLGCEVEAPTAGPTTPNGNLVDECDDDQANCHSGTGDDFQLTGGTTVLATEKPTVIDSTIQSEFPTYGFNCEFGWGSHKTFCHWEHDNHVQLKWSVLTSKTGPIQDHTGDGNFIYSQADENQKGKVARLVSPVVYSQNSAHCMTFWYHMSGSHVGTLRVKLRYQKPEEYDQLVWMAIGHQGDHWKEGRVLLHKSLKLYQVIFEGEIGKGNLGGIAVDDISINNHISQEDCAKPADLDKKNPEIKIDETGSTPGYEGEGEGDKNISRKPGNVLKTLDPRSGSKENLYFQG

Binding to SEMA3A (SEMA3A-FC): Yes
B7: Trap AK: NRP1 trap a2b1b2, aa about 22-26 and 143-583; SEQ ID NOs 61/62 (protein)
chain: MERGLPLLCAVLALVLAPAGAFRNDKRGPECSQNYTTPSGVIKSPGFPEKYPNSLECTYIVFAPKMSEIILEFESFDLEPDSNPPGGMFCRYDRLEIWDGFPDVGPHIGRYCGQKTPGRIRSSSGILSMVFYTDSAIAKEGFSANYSVLQSSVSEDFKCMEALGMESGEIHSDQITASSQYSTNWSAERSRLNYPENGWTPGEDSYREWIQVDLGLLRFVTAVGTQGAISKETKKKYYVKTYKIDVSSNGEDWITIKEGNKPVLFQGNTNPTDVVVAVFPKPLITRFVRIKPATWETGISMRFEVYGCKITDYPCSGMLGMVSGLISDSQITSSNQGDRNWMPENIRLVTSRSGWALPPAPHSYINEWLQIDLGEEKIVRGIIIQGGKHRENKVFMRKFKIGYSNNGSDWKMIMDDSKRKAKSFEGNNNYDTPELRTFPALSTRFIRIYPERATHGGLGLRMELLGCRSGSKENLYFQG

Binding to SEMA3A (SEMA3A-FC): Yes
B8: Trap AS: NRP1 trap a2b1c, aa about 22-26, 143-430 and 584-856; SEQ ID NOs 65/66 (protein)
chain: MERGLPLLCAVLALVLAPAGAFRNDKRGPECSQNYTTPSGVIKSPGFPEKYPNSLECTYIVFAPKMSEIILEFESFDLEPDSNPPGGMFCRYDRLEIWDGFPDVGPHIGRYCGQKTPGRIRSSSGILSMVFYTDSAIAKEGFSANYSVLQSSVSEDFKCMEALGMESGEIHSDQITASSQYSTNWSAERSRLNYPENGWTPGEDSYREWIQVDLGLLRFVTAVGTQGAISKETKKKYYVKTYKIDVSSNGEDWITIKEGNKPVLFQGNTNPTDVVVAVFPKPLITRFVRIKPATWETGISMRFEVYGCKITDYPEVEAPTAGPTTPNGNLVDECDDDQANCHSGTGDDFQLTGGTTVLATEKPTVIDSTIQSEFPTYGFNCEFGWGSHKTFCHWEHDNHVQLKWSVLTSKTGPIQDHTGDGNFIYSQADENQKGKVARLVSPVVYSQNSAHCMTFWYHMSGSHVGTLRVKLRYQKPEEYDQLVWMAIGHQGDHWKEGRVLLHKSLKLYQVIFEGEIGKGNLGGIAVDDISINNHISQEDCAKPADLDKKNPEIKIDETGSTPGYEGEGEGDKNISRKPGNVLKTLDPRSGSKENLYFQG

Binding to SEMA3A (SEMA3A-FC): No | Kd (SEMA3A-FC; [1]): > 1000 nM | Kd (human VEGF165): > 250 nM
B9: Trap N: NRP1 trap a1a2, aa about 22-265; SEQ ID NOs 85/86 (protein)
chain: FRNDKCGDTIKIESPGYLTSPGYPHSYHPSEKCEWLIQAPDPYQRIMINFNPHFDLEDRDCKYDYVEVFDGENENGHFRGKFCGKIAPPPVVSSGPFLFIKFVSDYETHGAGFSIRYELFKRGPECSQNYTTPSGVIKSPGFPEKYPNSLECTYIVFAPKMSEIILEFESFDLEPDSNPPGGMFCRYDRLEIWDGFPDVGPHIGRYCGQKTPGRIRSSSGILSMVFYTDSAIAKEGFSANYSVLRSGSKENLYFQG
